In IntAct's records for PubMed 19876371:

B1: Glucose-1-phosphate adenylyltransferase large subunit 1 (Solanum tuberosum (Potato)), Q00081 (parent)
chain: NKIKPGVAYSVITTENDTQTVFVDMPRLERRRANPKDVAAVILGGGEGTKLFPLTSRTATPAVPVGGCYRLIDIPMSNCINSAINKIFVLTQYNSAPLNRHIARTYFGNGVSFGDGFVEVLAATQTPGEAGKKWFQGTADAVRKFIWVFEDAKNKNIENIVVLSGDHLYRMDYMELVQNHIDRNADITLSCAPAEDSRASDFGLVKIDSRGRVVQFAEKPKGFDLKAMQVDTTLVGLSPQDAKKSPYIASMGVYVFKTDVLLKLLKWSYPTSNDFGSEIIPAAIDDYNVQAYIFKDYWEDIGTIKSFYNASLALTQEFPEFQFYDPKTPFYTSPRFLPPTKIDNCKIKDAIISHGCFLRDCSVEHSIVGERSRLDCGVELKDTFMMGADYYQTESEIASLLAEGKVPIGIGENTKIRKCIIDKNAKIGKNVSIINKDGVQEADRPEEGFYIRSGIIIILEKATIRDGTVI
partner: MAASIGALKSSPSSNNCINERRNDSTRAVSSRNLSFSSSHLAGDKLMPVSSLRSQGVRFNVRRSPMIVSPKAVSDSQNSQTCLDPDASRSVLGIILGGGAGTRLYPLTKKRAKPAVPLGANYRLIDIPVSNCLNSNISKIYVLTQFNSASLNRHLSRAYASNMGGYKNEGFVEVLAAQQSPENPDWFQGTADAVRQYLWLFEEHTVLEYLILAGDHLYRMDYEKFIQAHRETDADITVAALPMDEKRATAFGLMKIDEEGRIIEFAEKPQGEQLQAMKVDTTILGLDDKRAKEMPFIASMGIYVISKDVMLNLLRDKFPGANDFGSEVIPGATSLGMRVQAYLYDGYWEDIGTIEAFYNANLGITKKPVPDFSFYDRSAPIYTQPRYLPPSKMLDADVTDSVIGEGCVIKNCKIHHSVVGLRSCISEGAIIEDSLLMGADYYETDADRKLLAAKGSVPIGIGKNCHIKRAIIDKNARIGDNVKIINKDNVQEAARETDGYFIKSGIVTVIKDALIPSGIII

Variants of: B1
Conditions: with glgs_soltu glgs

Row | Variant | effect of a mutation on the interaction
1 | I347A | disrupting interaction
2 | R100A | disrupting interaction
3 | P339A | disrupting interaction
4 | I351A;I352A | disrupting interaction
5 | I342A | disrupting interaction
